Results on nine molecules are retold here after patent US20250034256A1 (EUCURE BEIJING BIOPHARMA, published 2025).

Numbering of substitutions follows the chain as printed. Names and notes keep the numbering of the source.

The target in test [1] is mouse PD-1 (mPD-1) on transfected CHO cells (mouse) (UniProt Q02242). In words: flow cytometry on CHO cells transfected with mPD-1 (CHO-mPD-1); anti-mIgG Fc-FITC against SSC-H.
Test [2] deals with monkey (rhesus macaque) PD-1 (rmPD-1) on transfected CHO cells (rhesus macaque). Nature of the test: flow cytometry on CHO cells transfected with rmPD-1 (CHO-rmPD-1); anti-mIgG Fc-FITC against SSC-H. In general terms: Flow cytometry measures light scatter and fluorescence of single cells or particles in a stream.
The target of test [3] is chimeric (mouse and human) PD-1 (chiPD-1) on transfected CHO cells (chimeric (mouse and human)). Nature of the test: flow cytometry on CHO cells transfected with chiPD-1 (CHO-chiPD-1); anti-mIgG Fc-FITC against SSC-H.
chimeric (mouse and human) PD-1 (chiPD-1) on transfected CHO cells (chimeric (mouse and human)), sequence (chain, as listed by the source mutant limits assumed): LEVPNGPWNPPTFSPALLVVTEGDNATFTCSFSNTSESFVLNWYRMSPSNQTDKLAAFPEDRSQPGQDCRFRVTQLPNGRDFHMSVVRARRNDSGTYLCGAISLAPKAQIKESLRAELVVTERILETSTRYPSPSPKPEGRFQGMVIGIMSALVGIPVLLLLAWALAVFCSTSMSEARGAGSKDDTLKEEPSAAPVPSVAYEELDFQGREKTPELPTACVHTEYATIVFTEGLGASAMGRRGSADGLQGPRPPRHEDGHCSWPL
Test [4] concerns the target T1, mouse PD-1 (mPD-1) on transfected CHO cells (mouse, UniProt Q02242 25-288).
T1 sequence: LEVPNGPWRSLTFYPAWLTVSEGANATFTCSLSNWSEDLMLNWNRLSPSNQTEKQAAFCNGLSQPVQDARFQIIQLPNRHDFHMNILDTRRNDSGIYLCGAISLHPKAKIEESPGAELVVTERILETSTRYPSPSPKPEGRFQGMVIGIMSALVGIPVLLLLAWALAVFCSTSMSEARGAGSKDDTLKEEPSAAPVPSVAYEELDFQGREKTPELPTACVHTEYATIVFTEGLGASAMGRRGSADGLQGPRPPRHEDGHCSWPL
In words: flow cytometry on CHO cells transfected with mouse PD-1. The procedure:
(§1) 25 μl CHO cells were added to each well.
(§2) After being washed with PBS (1200 rmp, 5 min) twice, 50 μl of FITC labeled anti-mouse IgG Fc antibody (anti-mIgG Fc-FITC) was added into each well 1:500 dilution, followed by incubated at 4° C. for 30 minutes, and then PBS wash (1200 rmp, 5 min). The signals for FITC were determined by flow cytometry.

Test [5] has as its target T1, mouse PD-1 (mPD-1) on transfected CHO …. Nature of the test: flow cytometry, antibody at 1 µg/ml on CHO cells transfected with mPD-1 (CHO-mPD-1); anti-mIgG Fc-FITC against SSC-H. How it is done:
as §1, §2

The target in test [6] is T2, monkey (rhesus macaque) PD-1 (rmPD-1) on transfected CHO cells (rhesus macaque, UniProt Q15116 25-288 (human entry)).
T2 construct: also called monkey PD-1
T2 chain: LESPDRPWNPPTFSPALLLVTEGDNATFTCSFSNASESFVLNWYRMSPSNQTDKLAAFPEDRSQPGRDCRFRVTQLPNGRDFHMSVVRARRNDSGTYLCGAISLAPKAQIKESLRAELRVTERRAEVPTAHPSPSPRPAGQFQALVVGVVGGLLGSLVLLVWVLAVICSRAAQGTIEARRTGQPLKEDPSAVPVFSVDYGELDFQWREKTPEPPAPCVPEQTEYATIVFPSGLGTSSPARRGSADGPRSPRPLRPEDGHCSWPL
Nature of the test: flow cytometry, antibody at 1 µg/ml on CHO cells transfected with rmPD-1 (CHO-rmPD-1); anti-mIgG Fc-FITC against SSC-H. The procedure: as §1, §2

Test [7] concerns the target T3, Histidine-tagged human PD-1 protein (hPD-1-His) (human, UniProt Q15116 25-170, limits assumed).
T3 construct: Soluble analyte in SPR; not shown: histidine tag
Nature of the test: SPR (Biacore T200), antibody captured on Protein A chip, hPD-1-His analyte, 1:1 fit. The procedure: The binding affinity of the anti-hPD-1 antibodies were measured using surface plasmon resonance (SPR) using Biacore™ (Biacore™, INC, Piscataway N.J.) T200 biosensor equipped with pre-immobilized Protein A sensor chips.
Histidine-tagged human PD-1 proteins (hPD-1-His) at the concentration of 200, 100, 50, 25, 12.5, 6.25, 3.125, 1.5625 nM were then injected at 30 μL/min for 100 seconds. Dissociation was monitored for 400 seconds. The chip was regenerated after the last injection of each titration with Glycine (pH 2.0, 30 μL/min for 12 seconds).
As a person of ordinary skill in the art would understand, the same method with appropriate adjustments for parameters (e.g., antibody concentration) was performed for each tested antibody.
(In general: SPR reads the build-up and loss of mass on a sensor chip optically.)

T3 sequence (Q15116 25-170 limits assumed): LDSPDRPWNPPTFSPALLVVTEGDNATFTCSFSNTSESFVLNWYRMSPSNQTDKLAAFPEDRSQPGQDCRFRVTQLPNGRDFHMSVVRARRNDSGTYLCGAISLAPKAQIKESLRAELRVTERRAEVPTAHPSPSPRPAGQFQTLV

On to NC, for which the values for the % cells positive for Anti-mouse-IgGFc-FITC in test [1], in test [2] and in test [3] were 0.346%, 0.812% and 2.79%, respectively.

B1: mouse anti-hPD-1 antibody 18-3F1 (antibody, V domains shown)
VH: QVQLQQSGAELAKPGASVKMSCKASGYTFTSYWMHWVKQRPGQGLEWIGYINPSTGYTEYNQKFKDKATLTADKSSSTAYMQLSSLTSEDSAVYYCARGVRYYFDYWGQGTTLTVSS
VL: DIVMSQSPSSLAVSAGEKVTMSCKSSQSLLNSRTRKNYLAWYQQKPGQSPKLLIYWASTRESGVPDRFTGSGSGTDFTLTISSVQAEDLAVYYCKQSYNLLTFGAGTKLELK
notes: Mouse monoclonal antibody purified from ascites
As to B1, in test [4], the binding result is on record as “no binding (tested: 1 µg/ml)”. Besides, the “% cells positive for Anti-mouse-IgGFc-FITC” value (from here on “% cells positive”) is 1.51% in test [5] and 63.6% in test [6].

B2: 3F1-H4K2-IgG4-S228P (antibody, V domains shown)
VH: B1 VH with L11V, K67R, S76T, Q82E, S91T, T112L
VL: B1 VL with S5T, S9D, A15L, K18R, V19A, T69S, L89V, A105Q
notes: Humanized; human IgG4 constant domains with S228P (EU numbering)
One may read the Kd as the constant that tells how readily two partners part at equilibrium. By koff is commonly meant the first-order rate constant of dissociation. In general, kon refers to a measure of how fast the partners come together. In test [7], B2 displayed a Kd of 369 nM, a koff of 0.00177 s⁻¹ and a kon of 4800 M⁻¹ s⁻¹.

B3: mouse anti-hPD-1 antibody 3-6G1 (antibody, V domains shown)
VH: B1 VH with V18L, F29L, S54N, V100T, R101A
VL: B1 VL with L101Q, A105G, L111I
notes: Mouse monoclonal antibody purified from ascites; also called 03-6G1
Consider B3, for which the binding result in test [4] was “no binding (tested: 1 µg/ml)”. Moreover, the “% cells positive” value in test [5] turned out to be 0.502%; in test [6] it was 64.3%.

B4: 3F1-H4K3-IgG4-S228P (antibody, V domains shown)
VH: B1 VH with L11V, K67R, S76T, Q82E, S91T, T112L
VL: B1 VL with S5T, K18R, T69S, L89V, A105Q
notes: as for B2
Regarding B4, in test [7], the Kd is 397 nM, the koff was found to be 0.00161 s⁻¹ and the kon was found to be 4060 M⁻¹ s⁻¹.

B5: 3F1-H3K1-IgG4-S228P (antibody, V domains shown)
VH: B1 VH with L11V, K67R, K74T, S76T, Q82E, T87R, S91T, T112L
VL: B1 VL with S5T, S9D, A15L, K18R, V19A, M21I, T69S, L89V, A105Q
notes: as for B2
In test [7], B5 showed a Kd of 395 nM, a koff of 0.00179 s⁻¹ and a kon of 4530 M⁻¹ s⁻¹.

B6: 3F1-H4K1-IgG4-S228P (antibody, V domains shown)
VH: B1 VH with L11V, K67R, S76T, Q82E, S91T, T112L
VL: B1 VL with S5T, S9D, A15L, K18R, V19A, M21I, T69S, L89V, A105Q
notes: as for B2
Regarding B6, in test [7], binding was characterised by a dissociation constant (Kd) of 460 nM, the off-rate (koff) is 0.00204 s⁻¹ and the kon was determined as 4420 M⁻¹ s⁻¹.

B7: 3F1-H3K3-IgG4-S228P (antibody, V domains shown)
VH: B1 VH with L11V, K67R, K74T, S76T, Q82E, T87R, S91T, T112L
VL: B1 VL with S5T, K18R, T69S, L89V, A105Q
notes: as for B2
In test [7], B7 gave a Kd of 318 nM, a koff of 0.00139 s⁻¹ and a kon of 4380 M⁻¹ s⁻¹.

B8: mouse anti-hPD-1 antibody 25-1A7 (antibody, V domains shown)
VH: EVKLVESGGGLVQPGGSLKLSCAASGFTFSSYSMSWVRQTPEKRLEWVAHISSGGSSTYYPDTVKGRFTISRDNARNTLYLQMSSLKSEDTAMYYCTRQFYYGSSFWYFDVWGAGTTVTVSS
VL: DNVLTQSPVSLAVSLGQRATISCKASQSVDFDGDSYMNWYQQKPGQPPKLLIYAASNLESGIPARFSGSGSGTDFTLNIHPVEEEDAATYYCQQSNEDPPTFGGGTKLEIK
notes: as for B1
For B8, the binding result in test [4] is listed as “no binding (tested: 1 µg/ml)”. Also, the “% cells positive” value stood at 0.381% in test [5] and 85% in test [6].
